As usually defined, the stoichiometry N is the number of molecules, sites or subunits per partner or assembly. In general, Kd refers to the constant that tells how readily two partners part at equilibrium.

Test [1] addresses ULBP1-Fc. In words: SPR; Biacore 3000; biotinylated ULBP1-Fc (1000-2500 RU) on a Neutravidin coated CM5 chip; U20 injected at 0.125-32 μM; CD200 receptor Fc flow cell subtracted; equilibrium fit, one site specific binding, apparent; 20°C. (In general: Surface plasmon resonance follows binding to a sensor surface in real time, without labels.)
For test [2], the target named is Soluble U20 extracellular domain (sU20) of HHV-6B (HHV-6B). In words: SEC-SAXS; EndoH-treated U20 alone, 4.5 mg/mL, Superdex 200 Increase 5/150 GL in line with SAXS; mass by Porod volume. (Size exclusion chromatography separates by hydrodynamic size, large species first.)
Test [3] addresses ULBP1-6xHIS soluble construct (ULBP1-6H). The test is described as follows: SEC-SAXS; equimolar mixture of EndoH-treated U20 and ULBP1-6H, 4.5 mg/mL, Superdex 200 Increase 5/150 GL in line with SAXS.
Test [4] has as its target ULBP1 on transduced HEK293 cells (UniProt Q9BZM6). In words: flow cytometry on cells; ULBP1 expressing cells pretreated with soluble U20 at various concentrations, then stained with APC conjugated anti-ULBP1 (R&D Systems FAB1380A).
Test [5] shares this target. In words: flow cytometry on cells; ULBP1 (or ULBP3) HEK293 cells pretreated with sU20 at various concentrations for 5 minutes on ice, then stained with 5 nM NKG2D-Fc. In general terms: In flow cytometry, cells or beads pass a laser one at a time.
Test [6] has as its target ULBP1-Fc. In words: SEC-MALS; EndoH-deglycosylated U20 with ULBP1-Fc; 1 mg/ml, PBS, room temperature, WTC-030S5 column.
For test [7], the target named is Soluble U20 extracellular domain (sU20) of HHV-6B (HHV-6B). The test is described as follows: SEC-MALS; U20 with intact high mannose glycans, alone; 1 mg/ml, PBS, room temperature.
For test [8] the target is unchanged. The test is described as follows: SEC-MALS; EndoH-treated U20 alone; 1 mg/ml, PBS, room temperature.
In the next test the target is NKG2D-Fc (UniProt P26718). In words: SPR; format not told in the text (Supplementary Figure S1A).
Chain of NKG2D-Fc (P26718 73-216): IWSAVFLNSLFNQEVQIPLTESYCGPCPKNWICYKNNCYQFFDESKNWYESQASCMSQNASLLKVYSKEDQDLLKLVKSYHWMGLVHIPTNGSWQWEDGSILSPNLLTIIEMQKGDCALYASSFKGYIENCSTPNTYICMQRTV

Values joined by “and” are separate entries in the source; they are usually repeats but may differ in a detail not shown here. Equal values may be shown once.

Chain of Soluble U20 extracellular domain (sU20) of HHV-6B (domain or fragment) (Q9QJ46 16-321 limits assumed): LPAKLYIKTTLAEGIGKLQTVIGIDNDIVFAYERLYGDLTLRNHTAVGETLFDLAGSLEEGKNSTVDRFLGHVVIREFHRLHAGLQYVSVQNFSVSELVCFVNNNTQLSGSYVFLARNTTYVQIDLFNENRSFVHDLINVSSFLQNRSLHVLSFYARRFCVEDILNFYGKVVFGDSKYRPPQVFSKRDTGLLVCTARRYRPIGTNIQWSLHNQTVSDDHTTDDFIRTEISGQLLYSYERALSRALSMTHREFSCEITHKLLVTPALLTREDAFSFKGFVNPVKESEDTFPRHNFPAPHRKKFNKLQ

With “Soluble U20 extracellular domain (sU20) of HHV-6B (domain or fragment)”, the dissociation half-life with ULBP1-Fc [1] is 1.05 min and 2.07 min. Further, the stoichiometry N came to 2 in test [2]; 1 in [3]; 1 in the test with ULBP1-Fc [6]; 2 in test [7]; 2 in test [8]. The reduction of anti-ULBP1 antibody binding to ULBP1 cells at 0.125 μM sU20 in test [4] was determined as 60%. In addition, in [5], the decrease in NKG2D-Fc binding to ULBP1 cells at 5 μM sU20 turned out to be 90%.

“ULBP1-6xHIS soluble construct (ULBP1-6H) (domain or fragment)” gave a Kd in the test with NKG2D-Fc of 1000 nM.
